# Measurements: US20260008852A1 (CRYSTAL BIOSCIENCE, published 2026)
# Numbering of substitutions follows the chain as printed.
# B1: 40579p1.F7 scFv-Fc (scFv, V domains shown)
# VH: EVQLLESGGGLVQPGGSLRLSCAASGFTFSDYYMSWVRQAPGKGLEWVSGISISYGGNAYYADSVKGRFTVSRDNSKNTLYLQMNSLRAEDTAVYYCGRDRSPYQYRSMDVWGQGTTVTVSS
# VL: EIVLTQSPGTLSLSPGERATLTCRASQSVGDFLAWYQQKPGQAPRLLIYGASTRAAGIPARFRGSGSGTDFTLTISSLQSEDFAVYYCQQYKNWPPLTFGGGTKVEIK
# notes: Tested as scFv-Fc supernatant
# B2: 40579p1.G1 scFv-Fc (scFv, V domains shown)
# VH: B1 VH with T28N, D31S, Y33W
# VL: B1 VL with T22S, V29I, G30R, D31S, F32D, T53S, A56T, R63S, D70E, K92N
# notes: Tested as scFv-Fc supernatant
# B3: 40579p1.H7 scFv-Fc (scFv, V domains shown)
# VH: B1 VH with G10D, T28N, D31S, Y33W
# VL: B1 VL with T22S, V29I, G30R, D31S, F32D, T53S, A56T, R63S, D70E, K92N
# notes: Tested as scFv-Fc supernatant
# B4: 40579p1.H6 scFv-Fc (scFv, V domains shown)
# VH: EVQLLESGGGLVQPGGSLRLSCAASGFTVNNAWMSWVRQAPGKGLEWVSAISYGGSIYYADSVKGRFTISRDNSKNTLYLQMNSLRAEDTAVYYCAKHRSTTYNGMDVWGQGTTVTVSS
# VL: B1 VL with T22S, D31S, S52N, A60D, S67N, K92Y, N93D
# B5: 40633p1.1.A11 scFv-Fc (scFv, V domains shown)
# VH: EVQLLESGGDLVQPGGSLRLSCAASGFTFNTYWMNWVRQAPGKGLEWVAGINSKGGVTYYADSVKGRFTISRDNSKNTLYLQMNSLRAEDTAVYYCADWNDYDIMDVWGQGTTVTVSS
# VL: QSVLTQPPSASGTPGQTITISCSGSSSNVGRRTVNWYQQLPGTAPKLLIYTNAQRPSGVPDRFSGSKSGTSASLAISGLQSEDEADYYCATWDDSLNAWVFGGGTKLTVL
# B6: 40633p1.1.A6 scFv-Fc (scFv, V domains shown)
# VH: EVQLLESGGGLVQPGGSLRLSCAASGFSFSNYDMSWVRQAPGKGLEWVAGIRSGSRTYYADSVKGRFTISRDNSKNTLYLQMNSLRAEDTATYYCGRYFNMDVWGQGTTVTVSS
# VL: QSVLTQPPSASGTPGQRVTISCSGSTFNIGTNLVHWYQQLPGTAPKLLIYLTDRRPSGVPDRFSGSKSGTSASLAISGLQSEDEANYYCATWDDSLNSFLFGGGTKLTVL
# B7: 40633p1.2.A10 scFv-Fc (scFv, V domains shown)
# VH: EVQLLESGGGLVQPGGSLRLSCAASGFTVSYYGMSWVRQAPGKGLEWVSVIKQDGSEEYYADSVKGRFTISRDNSKNTLYLQMNSLRAEDTAVYYCARHWNDYSNGMNVWGQGTTVTVSS
# VL: QSVLTQPPSASGTPGQRVTISCSGSTSNVGDRYVYWYQQLPGTAPKLLIYLDDQRPSGVPDRFSGSKSGTSASLAISGLQSEDEADYYCASWDASLNGWVFGGGTKLTVL
# notes: Tested as scFv-Fc supernatant
# B8: 40633p1.1.A7 scFv-Fc (scFv, V domains shown)
# VH: B7 VH with V50A, E58K, G106A
# VL: B7 VL with V29I, D31R, R32E, Y33S, L51T, D52I, D86V
# notes: Tested as scFv-Fc supernatant
# B9: 40633p1.1.G11 scFv-Fc (scFv, V domains shown)
# VH: B7 VH with L86P
# VL: B7 VL
# notes: Tested as scFv-Fc supernatant
# B10: 40633p1.2.C3 scFv-Fc (scFv, V domains shown)
# VH: B7 VH with V50A, E58K, G106A, G111E
# VL: B7 VL with T26N, D31G, R32N, Y35S, L51R, D52N, D53S, D86V
# notes: Tested as scFv-Fc supernatant
# B11: 40633p1.2.E1 scFv-Fc (scFv, V domains shown)
# VH: B7 VH with G9R
# VL: B7 VL
# notes: Tested as scFv-Fc supernatant
# B12: 40633p1.2.F3 scFv-Fc (scFv, V domains shown)
# VH: B7 VH
# VL: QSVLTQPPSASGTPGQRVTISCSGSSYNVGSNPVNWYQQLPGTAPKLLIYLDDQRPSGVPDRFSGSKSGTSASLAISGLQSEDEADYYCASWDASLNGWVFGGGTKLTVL
# notes: Tested as scFv-Fc supernatant
# B13: 40633p1.1.B12 scFv-Fc (scFv, V domains shown)
# VH: EVQLLESGGGLLQPGGSLRLSCAASGFSFSSYGMHWVRQAPGKGLEWVAAINSDGSRIYYADSVKGRFTISRDNSKNTLYLQMNSLRAEDTAVYYCTKYYYHYAMDVWGQGTTVTVSS
# VL: QSVLTQPPSASGTPGQRVTISCSGSRSDIGATTVNWYQQLPGTAPKLLTYQSHLRPSGVPDRFSGSKSGTSASLAISGLQSEDEADYYCASWDASLNTWVFGGGTKLTVL
# B14: 40633p1.1.B3 scFv-Fc (scFv, V domains shown)
# VH: B7 VH with V50A, E58K, G106A
# VL: B7 VL with V29I, D31R, R32E, Y33S, L51T, D52I, A90G, S91T, A94D, G98A
# notes: Tested as scFv-Fc supernatant
# B15: 40633p1.1.E4 scFv-Fc (scFv, V domains shown)
# VH: B5 VH with D10G, N30S, T31S, N35S, A49S, N52S, K54S, G56S, V57A, D98R
# VL: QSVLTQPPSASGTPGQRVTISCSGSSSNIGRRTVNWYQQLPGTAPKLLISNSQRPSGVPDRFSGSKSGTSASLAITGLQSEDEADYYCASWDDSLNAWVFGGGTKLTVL
# notes: Tested as scFv-Fc supernatant
# B16: 40633p1.1.C11 scFv-Fc (scFv, V domains shown)
# VH: B5 VH with D10G, N30S, T31S, N35S, S53R, K54N, V57T, D98R
# VL: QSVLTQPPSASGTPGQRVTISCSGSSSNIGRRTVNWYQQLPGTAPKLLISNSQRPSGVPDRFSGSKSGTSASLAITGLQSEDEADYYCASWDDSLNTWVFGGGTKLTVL
# notes: Tested as scFv-Fc supernatant
# B17: 40633p1.2.D7 scFv-Fc (scFv, V domains shown)
# VH: B5 VH with D10S, N30S, T31S, N35S, A49S, N52S, K54S, G56S, V57A, D98R
# VL: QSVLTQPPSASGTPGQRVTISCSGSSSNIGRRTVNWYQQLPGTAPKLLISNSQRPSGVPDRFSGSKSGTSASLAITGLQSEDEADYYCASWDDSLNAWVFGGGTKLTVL
# notes: Tested as scFv-Fc supernatant
# B18: 40633p1.1.D11 scFv-Fc (scFv, V domains shown)
# VH: EVQLLESGGGLVQPGGSLRLSCAASGFTFRSYAMSWVRQAPGKGLEWVAYIGSSGGTTYYADSVKGRFTISRDNSKNTLYLQMNSLRAEDTAVYYCVKESYYYMDVWGQGTTVTVSS
# VL: QSVLTQPPSASGTPGQRVTISCSATISNIDINRVSWYQQLPGTAPKLLIFNSQRPSGVPDRFSGSKSGTSASLAISGLQSEDEADYYCATWDDSLNSWVFGGGTKLTVL
# notes: Tested as scFv-Fc supernatant
# B19: 40633p1.1.E3 scFv-Fc (scFv, V domains shown)
# VH: B7 VH with V50A, E58K, G106A
# VL: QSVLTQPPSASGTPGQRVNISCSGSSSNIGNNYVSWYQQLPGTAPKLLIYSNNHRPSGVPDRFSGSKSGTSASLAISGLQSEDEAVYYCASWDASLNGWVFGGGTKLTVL
# notes: Tested as scFv-Fc supernatant
# B20: 40633p1.1.E6 scFv-Fc (scFv, V domains shown)
# VH: EVQLLESGGGLVQPGGSLRLSCAASGLTFSSYAMNWVRQAPGKGLEWVAGIGGSGSSTYHTDSVKGRFTISRDNSKNTLYLQMSSLRAEDAAVYYCAKEDHWSGGMDVWGQGTTVTVSS
# VL: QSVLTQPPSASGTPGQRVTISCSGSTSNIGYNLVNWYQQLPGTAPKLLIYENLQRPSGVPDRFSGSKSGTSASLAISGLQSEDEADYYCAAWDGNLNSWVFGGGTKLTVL
# B21: 40633p1.1.F2 scFv-Fc (scFv, V domains shown)
# VH: EVQLLESGGGLVQPGGSLRLSCVASGLTFNGFAMTWVRQAPGKGLEWVSGISWNSGSIYYADSVKGRFTISRDNSKNTVYLQMSSLRAEDTAIYYCAKNWNDYYNSMDVWGQGTTVTVSS
# VL: QSVLTQPPSASGTPGQRVTISCSGSRSNIGTKYVYWYQQFPGTAPKLLIYTTDRRPSGVPDRFSGSKSGTSASLAISGLQSEDEADYYCSAWDDRLNAWVFGGGTKLTVL
# notes: Tested as scFv-Fc supernatant
# B22: 40633p1.1.G10 scFv-Fc (scFv, V domains shown)
# VH: B13 VH with L12V, Q13E, E46D, A50V, S53G, D54E, R57G, I58T, N77S, H102N
# VL: B13 VL with S27T, A31T, T33S, T49I, L54Q, L96Q
# B23: 40633p1.1.G3 scFv-Fc (scFv, V domains shown)
# VH: B20 VH with S84N
# VL: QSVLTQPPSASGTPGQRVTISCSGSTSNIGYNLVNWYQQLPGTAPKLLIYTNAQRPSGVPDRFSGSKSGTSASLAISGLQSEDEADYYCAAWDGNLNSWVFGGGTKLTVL
# B24: 40633p1.1.G5 scFv-Fc (scFv, V domains shown)
# VH: B7 VH with T28I, S30N, A40P, V50A, E58K, N77T
# VL: QSVLTQPPSASGTPGQRVTISCSGSWSNIGSYNSHWYQKLPGTAPKLLIYTTDRRPSGVPDRFSGSKSGTSASLAISGLQSEDEADYYCGTWDDSLNVWVFGGGTKLTVL
# notes: Tested as scFv-Fc supernatant
# B25: 40633p1.1.G7 scFv-Fc (scFv, V domains shown)
# VH: EVQLLESGGGLVQPGGSLRLSCAASGFTFSGSAMNWVRQAPGKGLEWVSAINSGGTTIYYADSVKGRFTVSRDNSKNTLYLQMNSLRAEDTAVYYCVKLDFYYGMDVWGEGTTVTVSS
# VL: QSVVTQPPSASGTPGQRVTVSCSGSSSNVGSKYVQWYQQLPGTAPKLLIYATDRRPSGVPDRFSGSKSGTSASLAISGLQSEDEADYYCASWDDSLNAWVFGGGTKLTVL
# notes: Tested as scFv-Fc supernatant
# Target: T1, his-tagged B7-H3 (UniProt Q5ZPR3-2 29-245, limits assumed)
# T1 construct: also called CD276; not shown: His tag
# T1 sequence (looked up): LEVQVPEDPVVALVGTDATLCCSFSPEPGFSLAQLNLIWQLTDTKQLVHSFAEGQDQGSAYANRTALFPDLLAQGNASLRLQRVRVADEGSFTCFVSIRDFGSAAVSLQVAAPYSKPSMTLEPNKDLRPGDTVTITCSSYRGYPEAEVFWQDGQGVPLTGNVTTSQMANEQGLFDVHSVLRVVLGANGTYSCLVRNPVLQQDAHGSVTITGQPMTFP
# Assay: SPR, Carterra LSA; binder captured by anti-human Fc, his-tagged B7-H3 injected
# Description: Binding affinities of anti-B7-H3 antibodies to B7-H3 were measured by Surface Plasmon Resonance (SPR) on a Carterra LSA instrument. Goat anti-human Fc antibody was amine coupled to a HC30M chip. ScFv-Fc supernatants were diluted 30-fold with HBSTE and were captured by the anti-human Fc coupled HC30M chip. A 1:2 dilution series of his-tagged B7-H3, starting at 400 nM, was injected onto the chip for binding. Data was analyzed using the Carterra TM Kinetics software.
Binder,Kd [nM],koff [s⁻¹],kon [M⁻¹ s⁻¹]
B1,212,0.02,108000
B2,6.75,,260000
B3,5.57,,281000
B4,7.72,,252000
B5,17.4,0.01,714000
B6,1,,166000
B7,1.44,,422000
B8,3.62,,371000
B9,1.48,,434000
B10,20.7,,33500
B11,8,,124000
B12,27.6,0.01,307000
B13,20.2,0.01,349000
B14,6.42,,360000
B15,3.95,,523000
B16,1.03,,481000
B17,5.69,,402000
B18,13.2,,277000
B19,> 400,0.65,2030
B20,142,,6880
B21,298,0.03,108000
B22,0.248,,349000
B23,524,0.04,73300
B24,437,0.06,141000
B25,0.113,,411000
